Reference: US20210252150A1

What was measured:
Test in all cases: ELISA
[1] = target: HA of A/Texas/36/1991 (H1N1) (influenza A virus (H1N1))
[2] = target: HA of A/Texas/50/2012 (H3N2) (influenza A virus (H3N2))
[3] = target: HA of A/Solomon Islands/03/2006 (H1N1) (influenza A virus (H1N1))

Measured: EC50 fold over wild-type rFluA-20

B1: rFluA-20 heavy chain mutant Y100aA (antibody, V domains shown)
VH: QVQLQESGPGLVKPSETLSLTCSVSGVSVTSDIYYWTWIRQPPGKGLEWIGYIFYNGDTNYNPSLKSRVTMSIDTSKNEFSLRLTSVTAADTAVYFCARGTEDLGACSSGSCPNHWGQGTLVTVSS
VL: DIQMTQSPSSLSASIGDRVTITCRPSQNIRSFLNWFQHKPGKAPKLLIYAASNLQSGVPSRFSGSGSGTEFTLTIRSLQPEDFATYYCQQSYNTPPTFGQGTKVEIK
> 100 fold: all assays above
